# Laboratory results reported in patent US20230312651A1, “Cyclic Peptide, Peptide Complex, and Drug Composition Containing Said Cyclic Peptide and/or Said Peptide Complex” (The University of Tokyo, priority 2020, published 2023).
# Entries after “also recorded” stand apart in the source; their conditions may differ. Starred links: 1 amine or outer side, 2 acyl side, 3 side chain; linkers in the order of their positions; H or OH if unused. Positions of bridges follow the written chain, without caps; N, C: chain ends. Non-standard residues stand in square brackets, D forms with d. Chains are numbered I, II in the order given. No end group written: not given here. NH(CH2CH2O)6CH2CO = O=C(COCCOCCOCCOCCOCCOCCN[*:1])[*:2]; Dap = NC[C@H](N)C(=O)O
# Target: extracellular domain of hTrkA (Homo sapiens, UniProt P04629)
# Assay: SPR binding kinetics (Biacore T200), hTrkA
# Parameters: the extracellular domain of hTrkA, hTrkC, and hTrkB
# Conditions: Homodimer (peptide complex), 1:1 binding model
# Experimental: (§1) With respect to the binding kinetics (binding affinity (dissociation constant) KD) of the cyclic peptides towards the extracellular domain of hTrkA, hTrkC, and hTrkB (which will hereinafter be called “hTrkA-C proteins”, collectively) immobilized on a sensor chip via a His6-tag, quantitative measurements making use of surface plasmon resonance (SPR) were carried out to evaluate the binding intensity and selectivity of the cyclic peptide to hTrkB, compared with that to hTrkA and hTrkC.
# (§2) The binding kinetics of each peptide towards the hTrkA-C proteins were determined using Biacore T200 (GE Healthcare). The buffer used was HBS-P+ (10 mM HEPES, 150 mM NaCl, and 0.05 vol% surfactant P20, pH 7.4) containing 0.1 vol% DMSO and 1 mM b-dodecyl-maltoside. 100 nM hTrkA-C proteins were immobilized on a Ni^2+ treated NTA chip in accordance with the manufacturer’s instructions (baseline response 1000 to 3000 refraction units). Peptides were injected as an analyte at a flow rate of […] and binding kinetics was modelled using a 1:1 binding model.
# extracellular domain of hTrkA, sequence (P04629 33-423 limits assumed): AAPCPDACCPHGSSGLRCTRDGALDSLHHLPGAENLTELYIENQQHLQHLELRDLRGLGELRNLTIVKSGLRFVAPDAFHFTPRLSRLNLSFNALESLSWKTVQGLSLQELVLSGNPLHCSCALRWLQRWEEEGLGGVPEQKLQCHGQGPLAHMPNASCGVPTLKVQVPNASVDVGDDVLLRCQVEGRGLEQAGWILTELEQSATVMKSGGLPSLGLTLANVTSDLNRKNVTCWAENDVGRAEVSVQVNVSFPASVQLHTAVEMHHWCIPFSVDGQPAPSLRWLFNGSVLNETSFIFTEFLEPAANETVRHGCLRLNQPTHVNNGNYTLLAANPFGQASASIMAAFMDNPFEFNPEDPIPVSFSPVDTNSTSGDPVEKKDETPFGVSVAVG
row,Molecule,"binding affinity KD, TrkA"
1,"I: {CH2CO}-YRHNSYEASAFWCGSGSGS[NH(CH2CH2O)6CH2CO][Dap]-NH2 / II: {CH2CO}-YRHNSYEASAFWCGSGSGS[NH(CH2CH2O)6CH2CO] (amide I:21-II:C; thioether I:N-I:13, II:N-II:13) [DiTrbL1]",N.B.

# Target: T1, extracellular domain of hTrkB (human, UniProt Q16620 32-430)
# T1 construct: extracellular domain; Immobilised on a Ni2+-treated NTA sensor chip through the His6-tag for SPR; fixed on His pulldown Dynabeads at 200 nM for the RaPID selection; also called human TrkB; TrkB extracellular domain; not shown: His6-tag
# Assay: RaPID affinity selection, 5 rounds, on beads carrying TrkB extracellular domain; sequencing
# Conditions: not given
# Experimental: Next, the peptide-mRNA/cDNA conjugate libraries thus obtained were subjected to affinity selection. First, as control selection, the peptide-mRNA/cDNA conjugate libraries were passed three times through His pulldown Dynabeads (Life Technologies) (each passage for 10 minutes under the condition of 4° C.). The above process is called “pre-clearance” or negative selection and is performed to remove undesired binding to beads. […] The process is called “positive selection”.
# By heating at 95° C. for 5 minutes, the cDNAs were eluted from the beads and a portion of the eluted cDNAs was evaluated by quantitative PCR using Sybr Green I and thermal cycler (LightCycler (Roche)). The remaining portion of the cDNAs was amplified by PCR and used for the transcription of the mRNA library used for affinity selection in the next round.
# One round consisted of preparation of a library, pre-clearance, and positive selection, and the round was performed 5 times. […] The collected cDNAs were amplified by PCR, purified using a column (NucleoSpin (Machery-Nagel)), and sequenced using a high through-put sequencer (MiSeq (Illumina)). Data analysis was performed using a software (CLC Sequence Viewer 7 (Qiagen)).
# T1 sequence (Q16620 32-430): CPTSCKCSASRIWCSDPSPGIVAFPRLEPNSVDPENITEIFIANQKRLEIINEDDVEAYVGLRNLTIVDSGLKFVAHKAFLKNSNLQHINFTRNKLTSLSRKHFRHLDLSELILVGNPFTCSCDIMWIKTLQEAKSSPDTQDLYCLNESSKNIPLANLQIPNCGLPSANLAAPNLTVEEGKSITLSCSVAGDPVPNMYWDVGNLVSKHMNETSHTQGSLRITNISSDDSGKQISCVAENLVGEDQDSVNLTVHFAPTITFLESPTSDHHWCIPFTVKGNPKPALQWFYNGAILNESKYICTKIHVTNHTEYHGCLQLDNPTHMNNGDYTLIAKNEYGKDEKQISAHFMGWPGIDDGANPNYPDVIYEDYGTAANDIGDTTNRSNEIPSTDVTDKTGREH
row,Molecule,binding result
1,"Ac-YKYKFWAYIPTNCGSGSGS (thioether (positions not given here); not fully specified (residue 1, bridges), In the selection it stood as a peptide-mRNA/cDNA conjugate joined through a puromycin linker) [SEQ ID NO 11]",binds
2,"Ac-YLRPRYKFWCGSGSGS (thioether (positions not given here); not fully specified (residue 1, bridges), In the selection it stood as a peptide-mRNA/cDNA conjugate joined through a puromycin linker) [SEQ ID NO 7]",binds
3,"Ac-YRFWQTPRFRLCGSGSGS (thioether (positions not given here); not fully specified (residue 1, bridges), In the selection it stood as a peptide-mRNA/cDNA conjugate joined through a puromycin linker) [SEQ ID NO 10]",binds
4,"Ac-YLQPKFKFWCGSGSGS (thioether (positions not given here); not fully specified (residue 1, bridges), In the selection it stood as a peptide-mRNA/cDNA conjugate joined through a puromycin linker) [SEQ ID NO 8]",binds
5,"Ac-YAHEGYKNSAFWCGSGSGS (thioether (positions not given here); not fully specified (residue 1, bridges), In the selection it stood as a peptide-mRNA/cDNA conjugate joined through a puromycin linker) [SEQ ID NO 9]",binds
6,"Ac-YRHNSYEASAFWCGSGSGS (thioether (positions not given here); not fully specified (residue 1, bridges), In the selection it stood as a peptide-mRNA/cDNA conjugate joined through a puromycin linker) [SEQ ID NO 1]",binds
7,"Ac-YRHDSYEASAFWCGSGSGS (thioether (positions not given here); not fully specified (residue 1, bridges), In the selection it stood as a peptide-mRNA/cDNA conjugate joined through a puromycin linker) [SEQ ID NO 4]",binds
8,"Ac-YRHNSYEASAFCCGSGSGS (thioether (positions not given here); not fully specified (residue 1, bridges), In the selection it stood as a peptide-mRNA/cDNA conjugate joined through a puromycin linker) [SEQ ID NO 6]",binds
9,"Ac-YRHNSYKASAFWCGSGSGS (thioether (positions not given here); not fully specified (residue 1, bridges), In the selection it stood as a peptide-mRNA/cDNA conjugate joined through a puromycin linker) [SEQ ID NO 2]",binds
10,"Ac-YRHSSYEASAFWCGSGSGS (thioether (positions not given here); not fully specified (residue 1, bridges), In the selection it stood as a peptide-mRNA/cDNA conjugate joined through a puromycin linker) [SEQ ID NO 3]",binds
11,"Ac-YRHNSYEASTFWCGSGSGS (thioether (positions not given here); not fully specified (residue 1, bridges), In the selection it stood as a peptide-mRNA/cDNA conjugate joined through a puromycin linker) [SEQ ID NO 5]",binds
12,"Ac-YRIHPWITTYRCGSGSGS (thioether (positions not given here); not fully specified (residue 1, bridges), In the selection it stood as a peptide-mRNA/cDNA conjugate joined through a puromycin linker) [SEQ ID NO 12]",binds
13,"Ac-YRLHQWINTFRCGSGSGS (thioether (positions not given here); not fully specified (residue 1, bridges), In the selection it stood as a peptide-mRNA/cDNA conjugate joined through a puromycin linker) [SEQ ID NO 13]",binds

# Target: T2, extracellular domain of hTrkC (Homo sapiens, UniProt Q16288)
# T2 construct: the extracellular domain of hTrkA, hTrkC, and hTrkB
# Assay: SPR binding kinetics (Biacore T200), hTrkC
# Conditions: Homodimer (peptide complex), 1:1 binding model
# Experimental: as §1, §2
# T2 sequence (Q16288 32-429 limits assumed): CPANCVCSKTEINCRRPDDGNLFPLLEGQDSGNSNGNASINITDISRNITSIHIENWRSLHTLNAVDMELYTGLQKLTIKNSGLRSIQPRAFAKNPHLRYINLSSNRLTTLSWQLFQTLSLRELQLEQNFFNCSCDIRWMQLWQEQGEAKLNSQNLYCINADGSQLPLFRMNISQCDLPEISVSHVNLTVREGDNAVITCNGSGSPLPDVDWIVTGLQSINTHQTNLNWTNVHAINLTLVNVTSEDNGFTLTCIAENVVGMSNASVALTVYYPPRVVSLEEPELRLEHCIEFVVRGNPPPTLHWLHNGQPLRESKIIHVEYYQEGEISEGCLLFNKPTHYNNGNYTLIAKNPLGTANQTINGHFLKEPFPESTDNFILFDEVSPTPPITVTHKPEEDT
row,Molecule,"binding affinity KD, TrkC"
1,"I: {CH2CO}-YRHNSYEASAFWCGSGSGS[NH(CH2CH2O)6CH2CO][Dap]-NH2 / II: {CH2CO}-YRHNSYEASAFWCGSGSGS[NH(CH2CH2O)6CH2CO] (amide I:21-II:C; thioether I:N-I:13, II:N-II:13) [DiTrbL1]",N.B.

# Test system: Erk½
# Assay: Western blot of phosphorylated Erk½ in primary hippocampal neurons
# Format: cell-based, mouse
# Conditions: ANA-12 100 µM added 30 minutes before 1 nM DiTrbL3; p<0.01
# Experimental: (§3) After washing with 0.1 M PBS twice, cells were lysed in a radio-immunoprecipitation assay (RIPA) buffer containing 50 mM Tris-HCI (pH 7.4), 150 mM NaCl, 2 mM EDTA, 1% Nonidet P-40, 0.5% Na-deoxycholate, 0.1% SDS, 50 mM NaF, 0.2 mM Na3VO4, 10 µg/mL aprotinin, 10 µg/mL leupeptin, and 1 mM phenylmethylsulfonyl fluoride on ice for 30 minutes. After ultrasonic treatment and centrifugation at 20,000 ×g for 30 minutes, the supernatant was subjected to SDS-PAGE. Protein amount was quantified using Bicinchoninic Acid Kit (BCA-1, Sigma).
# (§4) The cell lysate (protein amount: 20 µg in P-TrkB, 10 µg in TrkB, and 5 µg in Akt and Erk) was separated using 8% polyacrylamide gel and transferred to a polyvinylidene difluoride membrane (Merck Millipore, Massachusetts, USA). […]
# (§5) Finally, after the resulting membrane was washed with TBST, an immune-positive bands were detected by a chemiluminescence method using a Luminata Crescendo HPR substrate (Merck Millipore). The relative phosphorylation level of each kinase was calculated as a ratio of phosphorylated kinase/all kinases.
row,Molecule,phosphorylation of Erk½ induced by DiTrbL3
1,"O=C(Nc1ccccc1C(=O)NC1CCCCNC1=O)c1cc2ccccc2s1 (stereo not drawn) [ANA-12, reference compound]",the phosphorylation activity decreased; also recorded: suppressed

# Test system: 40 RTKs (receptor tyrosine kinases)
# Assay: Phospho-RTK array evaluation (off-target activity)
# Format: cell-based, mouse
# Conditions: ANA-12 100 µM added 30 minutes before DiTrbL3 1 nM
# Experimental: Comprehensive study of the phosphorylated tyrosine kinase receptor was conducted using a phospho-RTK array in accordance with the manufacturer’s protocol (Proteome Profiler mouse Phospho-RTK Array Kit, ARY014, R&D Systems). The phosphorylation level was evaluated by pixel density and quantified by Image J Software.
row,Molecule,"TrkB phosphorylation signal induced by DiTrbL3, RTK array and densitometric analysis"
1,"O=C(Nc1ccccc1C(=O)NC1CCCCNC1=O)c1cc2ccccc2s1 (stereo not drawn) [ANA-12, reference compound]",reduction in TrkB phosphorylation signal

# Test system: Akt
# Assay: Western blot of phosphorylated Akt (S473) in primary hippocampal neurons
# Format: cell-based, mouse
# Conditions: ANA-12 100 µM added 30 minutes before 1 nM DiTrbL3; p<0.05
# Experimental: as §3, §4, §5
row,Molecule,phosphorylation of Akt induced by DiTrbL3
1,"O=C(Nc1ccccc1C(=O)NC1CCCCNC1=O)c1cc2ccccc2s1 (stereo not drawn) [ANA-12, reference compound]",the phosphorylation activity decreased; also recorded: suppressed
